Results as given in article PMC7195465, “Molecular mechanism of light-driven sodium pumping” (Nature Communications, 2020).

How the values were obtained:
Assay in all cases: crystal structure; in meso (monoolein) crystals, 1.2 M sodium malonate pH 8.0, grown at 22 °C; pentameric form, space group C222_(1); data at 100 K and at room temperature
[1] = target: KR2-H30A (Krokinobacter eikastus)
[2] = target: KR2-D116N (Krokinobacter eikastus)
[3] = target: the molecule itself

KR2-H30A (natural protein)
stoichiometry N [1]: 5

KR2-D116N (natural protein)
stoichiometry N [2]: 5

B1: light-driven sodium-pumping rhodopsin KR2 from Krokinobacter eikastus (natural protein)
chain: MTQELGNANFENFIGATEGFSEIAYQFTSHILTLGYAVMLAGLLYFILTIKNVDKKFQMSNILSAVVMVSAFLLLYAQAQNWTSSFTFNEEVGRYFLDPSGDLFNNGYRYLNWLIDVPMLLFQILFVVSLTTSKFSSVRNQFWFSGAMMIITGYIGQFYEVSNLTAFLVWGAISSAFFFHILWVMKKVINEGKEGISPAGQKILSNIWILFLISWTLYPGAYLMPYLTGVDGFLYSEDGVMARQLVYTIADVSSKVIYGVLLGNLAITLSKNKELVEANS
modifications: retinal covalently bound to the lysine residue of helix G via the Schiff base
notes: KR2, light-driven Na+-pumping rhodopsin of Krokinobacter eikastus; Pentamer in the crystals grown at pH 8.0; the construct is not described beyond 'KR2 expression plasmid'; also called KR2-WT; WT protein; source: E. coli SE1 (Staby Codon T7), purified (DDM solubilisation, Ni-NTA, SEC)
stoichiometry N [3]: 5
